Data reported in patent publication CN114426577A (CHINESE DISEASE PREVENTION AND CONTROL CENTER FOR …, dated 2022).

Key:
[1] = target: SARS-Cov-2 Omicron变异株的生物素化RBD(South Africa/CERI-KRISP-K032195/2021) (SARS-CoV-2 Omicron variant, UniProt P0DTC2 319-541)
[2] = target: SARS-CoV-2 S蛋白 (Delta变异株, 假病毒) (SARS-CoV-2 Delta variant, UniProt P0DTC2 14-1273); experiment: cell-based or functional assay
[3] = target: SARS-CoV-2 S蛋白 (Omicron变异株, 假病毒) (SARS-CoV-2 Omicron variant, UniProt P0DTC2 14-1273); experiment: cell-based or functional assay

B1: SWB8 (antibody, V domains shown)
VH: EVQLVESGGGLVQPGGSLRLSCAASGFTIRSYEMNWVRQAPGKGLEWVSYISSSGTTIYYADSVKGRFTISRDTAKNSLYLQMNSLRAEDTAVYYCAREGDYPSAEYFHHWGQGTLVTVSS
VL: DIVMTQSSVSLAVSLGERATINCKSSQSVLYSSTNRSYLAWYQQKPGQSPKLLIYWASTRESGVPDRFSGSGSGTDFTLTISSLQAEDVAVYYCQQYYSTRRTFGQGTKLEIKR
- Kd [1]: < 1 pM
- 假病毒中和能力(IC50) [2]: 0.018 µg/mL
- 假病毒中和能力(IC50) [3]: 0.032 µg/mL

B2: LHD2 (antibody, V domains shown)
VH: QMQLVQSGPEVKKPGTSLKVSCKASGFAFTTSAVQWVRQARGQPLEWIGWIAVGSGKADYAQRFQERVTISRDMSTTTAYMELSSLSSEDTAVYFCAAPFCTRTTCLDGFDIWGQGTMVTVSS
VL: EIVLTQSPVTLSLSPGERATLSCRAGQSVSRNYLGWYQQKPGQAPRLLIYAASSRATGIPDRFSGRGSGTDFTLTISRLEPEDFAVYYCQQYGTSPWTFGQGTKVEIKV
- Kd [1]: < 1 pM
- 假病毒中和能力(IC50) [2]: 0.005 µg/mL
- 假病毒中和能力(IC50) [3]: 0.045 µg/mL

B3: LHD7 (antibody, V domains shown)
VH: QMQLVQSGPEVKKPGTSVKVSCKASGFTFITAAVQWVRQARGQRLEWIGWIAVGSGKTDYAQKFQERVTITRDISTSTAYMEVKSLRSEDTALYYCAAPQCNRTTCLDGFDIWGQGTKVIVSS
VL: EIVLTQSPVTLSLSPGERATLSCRASQSVSRSYLGWYQQKPGQAPRLLIYGASSRATGIPDRFRGSGSGTDFTLTISRLEPEDFAVYYCQQYGTSPWTFGQGTKVEIKV
- Kd [1]: < 1 pM
- 假病毒中和能力(IC50) [2]: 0.008 µg/mL
- 假病毒中和能力(IC50) [3]: 0.025 µg/mL

B4: LHC11 (antibody, V domains shown)
VH: EVQLVESGGGLIQPGGSLKLSCAATEIIVSRNYMTWVRQAPGKGLEWVSIIYPGGSSFYAESVKGRFTISRDEPKNTLFLQMNSLRVEDTAVYYCARGYGDYYFDFWGQGTLVTVSS
VL: EIVLTQSPVTLSLSPGERATLSCRASQSVSSSYLAWYQQKPGQAPRLLIYGASSRATGIPDRFSGSGSGTDFTLTISRLEPEDFAVYYCQQWLTFGGGTKVEIKV
- Kd [1]: 960 pM
- 假病毒中和能力(IC50) [2]: 0.027 µg/mL
- 假病毒中和能力(IC50) [3]: 0.024 µg/mL
